The chains are these.
B1: Azoarcus group I ribozyme (parent)
chain: GUGCCUUGCGCCGGGAAACCACGCAAGGGAUGGUGUCAAAUUCGGCGAAACCUAAGCGCCCGCCCGGGCGUAUGGCAACGCCGAGCCAAGCUUCGGCGCCUGCGCCGAUGAAGGUGUAGAGACUAGACGGCACCCACCUAAGGCAAACGCUAUGGUGAAGGCAUAGUCCAGGGAGUGGCGAAAGUCACACAAACCGG

Drawing on the RNAGym collection of RNA variant scans (doi:10.1093/molbev/msab373), this text covers reverse-splicing fitness for 84 variants.

In the data set the parent is B1. In words: reverse-splicing fitness (ratio to wild type); higher = more active; in vitro selection; Mg2+ level not given. The procedure, abridged: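 An in vitro group I ribozyme library with randomized positions was T7-transcribed and gel-purified. In triplicate, 10 pmol RNA in EPPS pH 7.5 was reacted with 50 pmoles of a 30-nt RNA substrate for 1 h at 37 °C across several added MgCl2 levels (1–48 mM), then stopped with EDTA. Products were reverse transcribed from a substrate-complementary primer, PCR-amplified and sequenced (HiSeq 4000). Fitness is a variant's read proportion after selection over that before, normalised to wild type.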
Turning to C82G A111C A120C A145C C150A U176G, the reverse-splicing fitness stood at 0.00623.
Next, C82A A145C C150A C169U U176C: 0.00759; C82A A120G A145C C150A C169G: 0.00852; C82A A111U A120G A145C C150A C169U U176G: 0.0059.
Turning to A120G A145G C150G C169U U176C, the reverse-splicing fitness worked out at 0.0556.
Consider A111G A120G A145U C150U C169U U176C, for which the reverse-splicing fitness was 0.0675.
The figure for C82G A111U A120C A145G C169U U176A is 0.0138.
For C82G A111U A120C A145G C169A, the reverse-splicing fitness is 0.0109.
The figure for C82A A111U A120C A145G C150U C169G U176G is 0.00639; for C82A A111C A120G A145G C150G C169G U176G it is 0.00603.
Next, A111U A120U A145U C150U C169U: 0.0433; A120U A145U C150A C169A U176C: 0.00256.
For the variant C82A A120G C169U U176A, the reverse-splicing fitness turned out to be 0.0233.
Next, A111U A120C A145C C169G U176A: 0.023; C82G A120C U176G: 0.0151; C82U A120G A145U C150U C169A U176G: 0.00326.
Next, C82A A120C C150G C169U U176G: 0.00629.
Next, C82G A111U C150A C169G U176C: 0.0229; C82A A111C A120G A145U C150U U176A: 0.0121; A111C A120U A145U C150U U176G: 0.0348.
Regarding C82G A111U A120G C150G C169G U176A, the reverse-splicing fitness is 0.0069.
Take C82G A120G A145G C150U: the reverse-splicing fitness was found to be 0.0247.
The figure for C82A A111U C150G C169A U176G is 0.00757; for C82A A111C A145G C150A U176A it is 0.0153; for A111C A120G A145C C150G U176C it is 0.0168.
Next, C82G A111G A120G A145C C150A C169U U176G: 0.00551; C82U A111C A120U A145G C150A C169U: 0.0043.
As for C82A A111G A120U A145U C150A C169A U176G, the reverse-splicing fitness was 0.00187.
Next, A111G A120U A145U C150G C169U: 0.012; C82G A120U A145C C169U U176G: 0.00148.
The figure for C82U A120U A145C C150G C169A U176G is 0.00188; for C82U A111U A120C A145G C150U C169A it is 0.00982.
As to A111G A145U C169G U176G, the reverse-splicing fitness was found to be 0.00522.
For the variant C82A A111U A120U A145G C150G C169G U176A, the reverse-splicing fitness worked out at 0.00885.
A111U A120G A145G C150G C169A U176A: the reverse-splicing fitness was 0.0126.
The figure for C82A A111G C150A C169U U176G is 0.00815.
Regarding C82G A111C A120C A145C C150G C169U, the reverse-splicing fitness was 0.00944.
Regarding C82A A120C A145G C150U C169A, the reverse-splicing fitness worked out at 0.0108.
The figure for A111C A120G A145C C150U C169A is 0.0284; for A111G A120C A145G C150A C169U it is 0.0508.
Next, C82A A120C A145U C150A C169A U176C: 0.0156.
As to C82U A111C A145G C150A C169U U176C, the reverse-splicing fitness turned out to be 0.0157.
Next, A111G A120G A145G C150G U176C: 0.0227; C82A A111C A120C U176C: 0.0216; C82G A111G A120C C150U C169A U176C: 0.0182.
Regarding C82A A111U A120G A145G C150U C169G, the reverse-splicing fitness stood at 0.0105.
Next, A111C A145G C150A C169A U176G: 0.00852; C82U A111G A120C A145C C150A C169U U176C: 0.0104.
Next, C82A A120C: 0.144.
The figure for C82A A120C A145G C150G U176G is 0.00716; for C82U A111U A120C A145U C150G C169G it is 0.00651; for A111U A120G A145C C169G U176C it is 0.0387.
For the variant A111U A145U U176C, the reverse-splicing fitness came out at 0.767.
Next, C82G A120G A145C C150G C169G U176G: 0.00412; C82G A111G A145G C150G: 0.0374; C82G A120U A145C C150A C169U: 0.00213.
As to C82U A111G A120U C169G U176G, the reverse-splicing fitness stood at 0.00183.
For A111C A120U A145U C150A C169U U176C, the reverse-splicing fitness is 0.0049.
Next, A111G A120C A145U U176A: 0.482; C82U A120G A145U C169U: 0.0182.
Take C82G A111U A120G A145C C150U U176C: the reverse-splicing fitness came out at 0.012.
Consider C82A A111U A120U C150A C169A U176G, for which the reverse-splicing fitness came to 0.00306.
On to A111C A120G A145U C150G C169U, for which the reverse-splicing fitness was determined as 0.0209.
Next, A111C A120G A145U C150G C169A: 0.0153; C82G A111C A145C C150A C169A: 0.00842.
The figure for A111U A120U C150G C169A U176A is 0.00451; for C82U A111U A120C A145G C150G C169G U176A it is 0.00984; for C82A A111U A120G C150U U176G it is 0.00825.
The figure for C82U A111U A145C C150G C169G is 0.0072.
A111C A120C C169G U176C: the reverse-splicing fitness turned out to be 0.021.
Next, A111G A145G C150A U176A: 0.297; C82A A111C A120G A145C C150G C169U U176A: 0.0089; A111G A145G C150U C169A U176A: 0.0193.
On to C82G A111G A120U C150U C169U, for which the reverse-splicing fitness was 0.00493.
Turning to C82A A120U A145U C150U, the reverse-splicing fitness was 0.0889.
The figure for C82G A111G A120U A145G C150G C169G is 0.00722; for C82U A111U A145G C150G C169G it is 0.00754.
Next, C82A A111U A120C A145G C150A C169A: 0.0122.
Next, C82G A120U A145G C150A C169U U176C: 0.00375; C82G A111G A120U A145C U176G: 0.0054.
Consider C82A A111C A120G C150G, for which the reverse-splicing fitness worked out at 0.00723.
The figure for C82U A111U A120G C150G C169U U176G is 0.00556; for C82A A111U A120G C150A U176A it is 0.0123.
On to A111U C150A C169U, for which the reverse-splicing fitness turned out to be 0.0167.
